These results are taken from PMC2134809.

The experiment concerns the target profilin (Acanthamoeba). Nature of the experiment: affinity chromatography.

Sequence of Arp2/3 complex (P53487 whole entry, looked up, one chain of several): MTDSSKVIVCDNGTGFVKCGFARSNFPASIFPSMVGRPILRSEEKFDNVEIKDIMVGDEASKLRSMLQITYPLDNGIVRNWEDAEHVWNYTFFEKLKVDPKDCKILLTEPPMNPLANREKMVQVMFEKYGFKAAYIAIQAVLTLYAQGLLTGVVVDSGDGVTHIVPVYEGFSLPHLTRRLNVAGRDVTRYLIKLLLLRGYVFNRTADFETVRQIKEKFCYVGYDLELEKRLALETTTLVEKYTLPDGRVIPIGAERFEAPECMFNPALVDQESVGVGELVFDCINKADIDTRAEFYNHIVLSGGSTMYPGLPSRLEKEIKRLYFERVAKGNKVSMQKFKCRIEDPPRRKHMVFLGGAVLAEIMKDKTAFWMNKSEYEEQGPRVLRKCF

With “Arp2/3 complex (from UniProt P53487 1-388)”, the percent of the complex bound to the column that holds profilin was determined as 10%.
